Measurements: the RNAGym collection of RNA variant scans (doi:10.7554/elife.80360)

B1: CPEB3 Ribozyme (parent)
chain: GGGGGCCACAGCAGAAGCGUUCACGUCGCGGCCCCUGUCAGAUUCUGGUGAAUCUGCGAAUUCUGCUGU

Variants of: B1
Assay: self-cleavage, relative activity (ratio to wild type); higher = more cleavage; co-transcriptional
G50U C66A gave a self-cleavage of 0.824.
For G50U C66G, the self-cleavage was 0.923.
G50U C66U gave a self-cleavage of 1.01.
Variant G50U G56C has a self-cleavage of 0.649.
In the case of G50U G58C, the self-cleavage is reported as 0.942.
Work on G50U G65C yielded a self-cleavage of 0.73.
Work on G50U G65U yielded a self-cleavage of 0.809.
G50U G68U showed a self-cleavage of 1.02.
G50U U53C gave a self-cleavage of 0.909.
G50U U53G showed a self-cleavage of 0.871.
Work on G50U U55A yielded a self-cleavage of 0.882.
For G50U U55G, the self-cleavage was 0.8.
Work on G50U U62C yielded a self-cleavage of 0.866.
Work on G50U U64C yielded a self-cleavage of 0.947.
For G50U U64G, the self-cleavage was 0.864.
G50U U67A showed a self-cleavage of 1.04.
G50U U67G showed a self-cleavage of 1.05.
For A51C A52U, the self-cleavage was 0.864.
A51C A60C showed a self-cleavage of 0.477.
With A51C C54A the self-cleavage was 0.582.
In the case of A51C C57G, the self-cleavage is reported as 0.38.
For A51C C63G, the self-cleavage was 0.699.
A51C G56C showed a self-cleavage of 0.57.
A51C G65U gave a self-cleavage of 0.729.
A51C U53G gave a self-cleavage of 0.703.
With A51C U55C the self-cleavage was 0.678.
In the case of A51C U55G, the self-cleavage is reported as 0.576.
A51C U61C gave a self-cleavage of 0.796.
Work on A51C U61G yielded a self-cleavage of 0.551.
A51C U62G gave a self-cleavage of 0.778.
A51C U64G gave a self-cleavage of 0.841.
Variant A51C U67C has a self-cleavage of 0.943.
In the case of A51G A52G, the self-cleavage is reported as 0.925.
Work on A51G A59C yielded a self-cleavage of 0.747.
For A51G A59G, the self-cleavage was 0.963.
For A51G A60C, the self-cleavage was 0.373.
For A51G C57G, the self-cleavage was 0.322.
Variant A51G C66A has a self-cleavage of 0.875.
In the case of A51G C66G, the self-cleavage is reported as 0.84.
Variant A51G C66U has a self-cleavage of 0.972.
For A51G G56A, the self-cleavage was 0.91.
In the case of A51G G56C, the self-cleavage is reported as 0.69.
Work on A51G G58A yielded a self-cleavage of 0.949.
Variant A51G U55A has a self-cleavage of 0.87.
For A51G U61C, the self-cleavage was 0.777.
A51G U69C showed a self-cleavage of 1.06.
With A51U A52U the self-cleavage was 0.96.
With A51U A59G the self-cleavage was 0.993.
Work on A51U C54A yielded a self-cleavage of 0.633.
In the case of A51U C57A, the self-cleavage is reported as 0.374.
With A51U C63A the self-cleavage was 0.797.
Work on A51U G56A yielded a self-cleavage of 0.889.
Work on A51U G56C yielded a self-cleavage of 0.486.
In the case of A51U G56U, the self-cleavage is reported as 0.879.
For A51U G58A, the self-cleavage was 0.941.
Work on A51U G58C yielded a self-cleavage of 0.975.
For A51U G65C, the self-cleavage was 0.674.
A51U U53A showed a self-cleavage of 0.918.
With A51U U55G the self-cleavage was 0.662.
Work on A51U U61C yielded a self-cleavage of 0.808.
Variant A52C A59U has a self-cleavage of 0.68.
Variant A52C A60C has a self-cleavage of 0.398.
With A52C A60G the self-cleavage was 0.839.
Variant A52C C57A has a self-cleavage of 0.414.
A52C C57U showed a self-cleavage of 0.398.
Work on A52C C63A yielded a self-cleavage of 0.795.
A52C G56A showed a self-cleavage of 0.826.
For A52C G58A, the self-cleavage was 0.887.
In the case of A52C G58C, the self-cleavage is reported as 0.986.
A52C G68A showed a self-cleavage of 0.987.
Variant A52C G68C has a self-cleavage of 0.978.
A52C U53G showed a self-cleavage of 0.788.
A52C U62G showed a self-cleavage of 0.806.
For A52C U64A, the self-cleavage was 0.875.
Variant A52C U67C has a self-cleavage of 1.
In the case of A52C U67G, the self-cleavage is reported as 1.
With A52C U69A the self-cleavage was 0.977.
Variant A52G A59C has a self-cleavage of 0.793.
With A52G A59G the self-cleavage was 0.98.
A52G A59U showed a self-cleavage of 0.82.
Work on A52G A60U yielded a self-cleavage of 0.506.
For A52G C54G, the self-cleavage was 0.861.
A52G C57A showed a self-cleavage of 0.343.
For A52G C66G, the self-cleavage was 0.966.
Work on A52G G58C yielded a self-cleavage of 0.972.
Work on A52G G65C yielded a self-cleavage of 0.843.
For A52G G65U, the self-cleavage was 0.894.
A52G G68U gave a self-cleavage of 0.988.
Variant A52G U53C has a self-cleavage of 0.892.
With A52G U53G the self-cleavage was 0.72.
A52G U55C showed a self-cleavage of 0.722.
With A52G U61A the self-cleavage was 0.89.
A52G U61G gave a self-cleavage of 0.861.
In the case of A52G U67C, the self-cleavage is reported as 0.944.
For A52G U67G, the self-cleavage was 1.02.
In the case of A52U C54U, the self-cleavage is reported as 0.976.
With A52U C63U the self-cleavage was 0.954.
With A52U C66G the self-cleavage was 0.695.
With A52U G56A the self-cleavage was 0.909.
For A52U G56U, the self-cleavage was 0.848.
A52U G58A gave a self-cleavage of 0.939.
Work on A52U G65C yielded a self-cleavage of 0.549.
A52U G65U gave a self-cleavage of 0.664.
Variant A52U G68A has a self-cleavage of 0.975.
A52U U55A gave a self-cleavage of 0.7.
A52U U55G gave a self-cleavage of 0.56.
A52U U61G showed a self-cleavage of 0.741.
Variant A52U U62C has a self-cleavage of 0.765.
A52U U64A showed a self-cleavage of 0.87.
Variant A52U U67A has a self-cleavage of 0.978.
In the case of A52U U69A, the self-cleavage is reported as 1.03.
With U53A A60C the self-cleavage was 0.324.
For U53A A60G, the self-cleavage was 0.777.
U53A A60U showed a self-cleavage of 0.35.
For U53A C54A, the self-cleavage was 0.907.
Variant U53A C54U has a self-cleavage of 0.882.
With U53A C57A the self-cleavage was 0.402.
Work on U53A C63A yielded a self-cleavage of 0.673.
U53A C66A showed a self-cleavage of 0.509.
For U53A G56A, the self-cleavage was 0.736.
U53A G56C gave a self-cleavage of 0.411.
Work on U53A U55C yielded a self-cleavage of 0.43.
U53A U55G gave a self-cleavage of 0.411.
For U53A U61G, the self-cleavage was 0.581.
U53A U67C gave a self-cleavage of 0.975.
Variant U53A U69C has a self-cleavage of 1.06.
U53C C54U gave a self-cleavage of 0.819.
U53C C63U showed a self-cleavage of 0.786.
U53C C66A showed a self-cleavage of 0.386.
Work on U53C C66U yielded a self-cleavage of 0.801.
U53C G56U showed a self-cleavage of 0.399.
Work on U53C G58U yielded a self-cleavage of 0.965.
U53C G65U showed a self-cleavage of 0.429.
Work on U53C U61A yielded a self-cleavage of 0.577.
Variant U53C U61C has a self-cleavage of 0.342.
With U53C U62C the self-cleavage was 0.513.
U53C U67A gave a self-cleavage of 0.793.
U53C U67C gave a self-cleavage of 0.872.
Variant U53C U67G has a self-cleavage of 0.822.
With U53C U69A the self-cleavage was 0.977.
With U53G A59U the self-cleavage was 0.576.
With U53G C54A the self-cleavage was 0.873.
In the case of U53G C57G, the self-cleavage is reported as 0.403.
For U53G C63A, the self-cleavage was 0.494.
For U53G C63G, the self-cleavage was 0.523.
U53G C63U showed a self-cleavage of 0.849.
U53G C66G gave a self-cleavage of 0.647.
U53G C66U showed a self-cleavage of 0.929.
Work on U53G G58A yielded a self-cleavage of 0.818.
U53G G68C gave a self-cleavage of 0.882.
With U53G G68U the self-cleavage was 0.986.
In the case of U53G U55G, the self-cleavage is reported as 0.386.
Variant U53G U62G has a self-cleavage of 0.558.
Variant U53G U64A has a self-cleavage of 0.604.
With U53G U67A the self-cleavage was 0.779.
U53G U67C gave a self-cleavage of 0.901.
For U53G U67G, the self-cleavage was 0.894.
U53G U69A showed a self-cleavage of 0.982.
In the case of C54A A59C, the self-cleavage is reported as 0.365.
In the case of C54A A59G, the self-cleavage is reported as 0.858.
For C54A A59U, the self-cleavage was 0.497.
Variant C54A A60C has a self-cleavage of 0.272.
C54A C66G showed a self-cleavage of 0.466.
Work on C54A G56C yielded a self-cleavage of 0.431.
C54A G58A gave a self-cleavage of 0.883.
In the case of C54A G65C, the self-cleavage is reported as 0.514.
Variant C54A G68C has a self-cleavage of 0.942.
